In publication PMC12041529:

Experiment: western blot, co-transfected HEK293T
Settings: glycan lost; control: Flag-GPNMB (WT)

B1: glycoprotein nonmetastatic melanoma protein B (GPNMB): GPNMB296Q (protein)
parent chain: MECLYYFLGFLLLAARLPLDAAKRFHDVLGNERPSAYMREHNQLNGWSSDENDWNEKLYPVWKRGDMRWKNSWKGGRVQAVLTSDSPALVGSNITFAVNLIFPRCQKEDANGNIVYEKNCRNEAGLSADPYVYNWTAWSEDSDGENGTGQSHHNVFPDGKPFPHHPGWRRWNFIYVFHTLGQYFQKLGRCSVRVSVNTANVTLGPQLMEVTVYRRHGRAYVPIAQVKDVYVVTDQIPVFVTMFQKNDRNSSDETFLKDLPIMFDVLIHDPSHFLNYSTINYKWSFGDNTGLFVSTNHTVNHTYVLNGTFSLNLTVKAAAPGPCPPPPPPPRPSKPTPSLATTLKSYDSNTPGPAGDNPLELSRIPDENCQINRYGHFQATITIVEGILEVNIIQMTDVLMPVPWPESSLIDFVVTCQGSIPTEVCTIISDPTCEITQNTVCSPVDVDEMCLLTVRRTFNGSGTYCVNLTLGDDTSLALTSTLISVPDRDPASPLRMANSALISVGCLAIFVTVISLLVYKKHKEYNPIENSPGNVVRSKGLSVFLNRAKAVFFPGNQEKDPLLKNQEFKGVS
other: SNAP29 protein level: decreases
